Results: US12280159B2, “Therapeutic protein-based nanoparticles for treating cancer” (THE REGENTS OF THE UNIVERSITY OF MICHIGAN, priority 2020, dated 2025)

Tests used:
[1] = system: B16F10-OVA melanoma; assay: Therapeutic efficacy in murine B16F10-OVA melanoma model; type: in vivo, C57BL/6 mice; conditions: treated days 7 and 14 with CpG
Protocol: Therapeutic efficacy of pNPs in a model of melanoma. Encouraged by the fact that OVA pNPs with 10% PEG/OVA ratio result in increased OT-I CD8+ cell proliferation in vitro, improved uptake by APCs (both in vitro and in vivo), and enhanced humoral immune response in vivo, a murine model of B16F10-OVA melanoma was employed to evaluate the therapeutic efficacy of pNPs with a PEG/OVA ratio of 10% compared to solute OVA. Tumor-bearing mice were treated with 10% PEG/OVA pNPs or solute OVA (10 μg OVA/100 μL dose), co-administered with CpG (15 μg/dose). Following the regimen shown in FIG. 9A, C57BL/6 mice (10 mice/treatment group) were inoculated with 1×10^5 B16F10-OVA cells in the SC flank on day 0. Treatments with either 10% PEG/OVA pNPs or solute OVA were initiated on day 7 after tumor inoculation. A second treatment was given on day 14. Mice were euthanized after their tumors reached 15 mm in any dimension. […] More than 50% of mice treated with solute OVA were euthanized due to large tumor burden on day 20, and 100% of the mice were euthanized on day 21.

[2] = system: draining lymph nodes (F4/80+ macrophages, B220+ B cells, CD11c+ DCs); set-up: species or system C57BL/6 mice; conditions: mouse, in vivo, sc
Protocol: OVA pNPs delivery to lymph nodes. Next, the pNPs targeting of the draining lymph nodes using AlexaFluor 647-labeled pNPs was evaluated. OVA pNPs of varying PEG/OVA ratio (10, 30, 50%) and size (200 nm, 500 nm) were injected subcutaneously at the tail base of C57BL/6 mice (10 μg OVA/100 μL dose). The inguinal draining lymph nodes were harvested 48 hours after injection. Single-cell suspensions from the draining lymph nodes were prepared and pNPs uptake among the different populations of antigen-presenting cells were analyzed (dendritic cells, macrophages and B cells) using flow cytometry by comparing the MFI values of the cells. […] In the past, many different particle sizes have been studied with respect to their lymphatic drainage. It has been shown that particles exceeding 500 nm can be trapped at the injection site. Nanoparticles smaller than 10 nm, or soluble antigen, diffuse into the lymphatic system easily, but their retention time in the lymph nodes is too short to provide sustained antigen delivery. […] For smaller pNPs sizes, improved uptake is observed for pNP with lower PEG/OVA ratio.

B1: ovalbumin (protein, UniProt P01012 2-386, looked up)
Ovalbumin: GSIGAASMEFCFDVFKELKVHHANENIFYCPIAIMSALAMVYLGAKDSTRTQINKVVRFDKLPGFGDSIEAQCGTSVNVHSSLRDILNQITKPNDVYSFSLASRLYAEERYPILPEYLQCVKELYRGGLEPINFQTAADQARELINSWVESQTNGIIRNVLQPSSVDSQTAMVLVNAIVFKGLWEKAFKDEDTQAMPFRVTEQESKPVQMMYQIGLFRVASMASEKMKILELPFASGTMSMLVLLPDEVSGLEQLESIINFEKLTEWTSSNVMEERKIKVYLPRMKMEEKYNLTSVLMAMGITDVFSSSANLSGISSAESLKISQAVHAAHAEINEAGREVVGSAEAGVDAASVSEEFRADHPFLFCIKHIATNAVLFFGRCVSP
notes: soluble ovalbumin antigen used as control
Question: What does the source list for B1?
Answer: mice euthanized due to large tumor burden ([1]; day 20): More than 50%; mice euthanized ([1]; day 21): 100%; animal survival [1]: slightly better survival; MFI of lymph node cells / delivery to draining lymph nodes [2]: not delivered to the lymph nodes efficiently
